The values that follow come from PMC6526471.

This experiment addresses Patched (Ptc) receptor on C3H10T1/2 cells (mouse (endogenous in C3H10T1/2)) (UniProt Q61115).
Sequence of UniProt Q61115 (Q61115 whole entry): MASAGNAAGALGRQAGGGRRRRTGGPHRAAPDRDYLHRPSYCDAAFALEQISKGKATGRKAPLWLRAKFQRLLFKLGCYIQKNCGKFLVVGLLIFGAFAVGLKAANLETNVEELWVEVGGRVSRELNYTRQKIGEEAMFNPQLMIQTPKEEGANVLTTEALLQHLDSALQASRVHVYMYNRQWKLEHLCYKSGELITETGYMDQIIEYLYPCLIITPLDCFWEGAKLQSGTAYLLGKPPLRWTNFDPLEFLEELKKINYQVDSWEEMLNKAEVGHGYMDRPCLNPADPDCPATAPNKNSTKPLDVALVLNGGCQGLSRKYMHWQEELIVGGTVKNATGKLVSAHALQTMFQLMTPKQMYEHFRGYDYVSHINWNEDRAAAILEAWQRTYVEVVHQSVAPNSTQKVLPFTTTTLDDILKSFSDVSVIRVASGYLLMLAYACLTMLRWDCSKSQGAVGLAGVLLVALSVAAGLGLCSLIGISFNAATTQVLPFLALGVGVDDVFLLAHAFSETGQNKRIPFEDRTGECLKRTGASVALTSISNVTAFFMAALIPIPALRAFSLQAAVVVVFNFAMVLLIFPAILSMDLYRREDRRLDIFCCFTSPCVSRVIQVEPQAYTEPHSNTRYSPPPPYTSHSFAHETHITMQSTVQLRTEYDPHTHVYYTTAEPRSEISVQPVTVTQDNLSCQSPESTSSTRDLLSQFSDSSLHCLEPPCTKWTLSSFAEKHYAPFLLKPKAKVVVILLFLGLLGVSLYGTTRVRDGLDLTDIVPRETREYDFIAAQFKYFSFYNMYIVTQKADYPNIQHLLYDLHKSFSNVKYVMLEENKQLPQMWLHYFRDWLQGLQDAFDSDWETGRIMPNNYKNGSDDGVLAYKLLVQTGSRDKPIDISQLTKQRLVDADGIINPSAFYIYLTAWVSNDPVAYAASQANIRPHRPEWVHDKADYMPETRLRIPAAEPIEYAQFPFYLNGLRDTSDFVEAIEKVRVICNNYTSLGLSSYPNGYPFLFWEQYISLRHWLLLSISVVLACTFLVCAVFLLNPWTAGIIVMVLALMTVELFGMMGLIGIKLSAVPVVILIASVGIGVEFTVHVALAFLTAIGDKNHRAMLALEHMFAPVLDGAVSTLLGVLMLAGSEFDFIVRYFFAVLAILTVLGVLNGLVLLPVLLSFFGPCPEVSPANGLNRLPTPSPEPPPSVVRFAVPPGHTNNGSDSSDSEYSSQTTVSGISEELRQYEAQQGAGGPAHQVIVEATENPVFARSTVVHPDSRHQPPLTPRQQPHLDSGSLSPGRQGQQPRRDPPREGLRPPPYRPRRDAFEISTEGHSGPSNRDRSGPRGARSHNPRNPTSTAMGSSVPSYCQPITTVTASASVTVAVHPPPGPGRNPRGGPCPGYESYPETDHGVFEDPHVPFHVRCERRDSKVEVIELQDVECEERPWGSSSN

“Sonic hedgehog (Shh), soluble form released from Shh-expressing Panc1 cells (ligand)” showed a Shh-induced C3H10T1/2 differentiation with 5 ug/mL HSI (0.7 sulfates/disaccharide), relative to no HS/heparin (100%) of 70%; a Shh-induced C3H10T1/2 differentiation with 5 ug/mL HSII (1.2 sulfates/disaccharide), relative to no HS/heparin (100%) of 58%; a Shh-induced C3H10T1/2 differentiation with 5 ug/mL HSIII (1.4 sulfates/disaccharide), relative to no HS/heparin (100%) of 38%; a Shh-induced C3H10T1/2 differentiation with 5 ug/mL dp30 heparin, relative to no HS/heparin (100%) of 26%. The Shh-induced C3H10T1/2 differentiation with 5 ug/mL heparin, relative to no HS/heparin (100%) was 27%.
